Measured values: patent US20140228540A1, “POLYPEPTIDES THAT BIND TISSUE INHIBITOR OF METALLOPROTEINASE TYPE THREE (TIMP-3), COMPOSITIONS AND METHODS” (Amgen Inc., priority 2009, published 2014)

Key:
cartilage-explants = conditions: addition of the protein to explants; cited from earlier work
[1] = tested on: rat medial meniscal tear model of osteoarthritis; conditions: intra-articular injection; cited from earlier work
MMP-13 = MMP-13 (Homo sapiens, UniProt P45452); experiment: TIMP-3 inhibition of MMP-13 (TIMP-3 alone); format: biochemical; conditions: TIMP-3 at 0.25 nM, 1.5 nM MMP-13, absence of any antibody
From the text: This Example described MMP-13 Inhibition Assays useful for measuring the effect(s) of TIMP-3 binding proteins (also referred to as test molecules, including LRP-1 peptides and antibodies to TIMP-3) on the ability of TIMP-3 to inhibit MMP-13. First, a titration of TIMP-3 inhibition of MMP-13 is run to empirically determine the IC50 of TIMP-3. […] Briefly, test molecules are titrated in assay buffer and added to black polystyrene 96 or 384 well assay plate (Griener Bio-One, Germany). […] Then recombinant TIMP-3 is diluted in assay buffer (20 mM Tris, 10 mM CaCl2, 10 uM ZnCl2, 0.01% Brij 35 (Calbiochem/EMD, San Diego, Calif.), pH 7.5) to a previously determined concentration (for example, TIMP-3's IC70 with 3 nM being a typical concentration), added to the test molecules and rotated for 10 minutes at room temperature. […]
None of the 22 antibodies evaluated adversely affected the ability of TIMP-3 to inhibit MMP-13, nor did they have an effect upon MMP-13 itself. In the TIMP-3 accumulation assay, the antibodies were evaluated for reproducible, titratable increase in the accumulation of TIMP-3 in supernatant fluid at levels of at least about 1.5 times higher than that observed with a negative control antibody. […]

B1: TIMP-3: tissue inhibitor of metalloproteinase 3, recombinant (protein, UniProt P35625 24-211, looked up)
Metalloproteinase inhibitor 3: CTCSPSHPQDAFCNSDIVIRAKVVGKKLVKEGPFGTLVYTIKQMKMYRGFTKMPHVQYIHTEASESLCGLKLEVNKYQYLLTGRVYDGKMYTGLCNFVERWDQLTLSQRKGLNYRYHLGCNCKIKSCYYLPCFVTSKNECLWTDMLSNFGYPGYQSKHYACIRQKGGYCSWYRGWAPPDKSIINATDP
cytokine-induced degradation of cartilage-explants (cartilage-explants): prevents cytokine-induced degradation | cartilage damage [1]: reduces cartilage damage | inhibition of MMP-13 activity (MMP-13): 54%
